Measurements: patent publication US20230348603A1 (VERSEAU THERAPEUTICS, published 2023)
Changes are numbered by the printed parent chain.

T1: Human VSIG4-L-His (human, UniProt Q9Y279 20-283)
T1 construct: long isoform ECD with His tag; also called hVSIG4-L
T1 sequence: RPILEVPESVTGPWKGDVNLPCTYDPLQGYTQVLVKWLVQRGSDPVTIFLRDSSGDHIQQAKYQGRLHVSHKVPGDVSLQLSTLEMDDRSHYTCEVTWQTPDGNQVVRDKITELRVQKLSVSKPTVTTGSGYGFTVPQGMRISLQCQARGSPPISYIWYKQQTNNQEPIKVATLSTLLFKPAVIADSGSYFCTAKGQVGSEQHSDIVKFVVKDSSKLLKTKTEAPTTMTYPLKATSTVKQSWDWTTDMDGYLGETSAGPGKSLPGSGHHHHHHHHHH

T2: Cynomolgus Monkey VSIG4-L-His (cynomolgus monkey)
T2 construct: ECD with His tag; also called cyVSIG4-L; cyno VSIG4-L-His
T2 chain: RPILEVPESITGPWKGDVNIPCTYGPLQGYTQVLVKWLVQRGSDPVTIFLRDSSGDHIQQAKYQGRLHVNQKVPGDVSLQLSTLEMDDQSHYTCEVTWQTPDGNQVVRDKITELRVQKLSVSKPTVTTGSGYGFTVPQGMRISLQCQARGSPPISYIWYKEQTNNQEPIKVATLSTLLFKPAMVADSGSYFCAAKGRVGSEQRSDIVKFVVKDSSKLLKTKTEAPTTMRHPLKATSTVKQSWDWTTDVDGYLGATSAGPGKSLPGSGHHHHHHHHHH

T3: Human VSIG4-S-His (human, UniProt Q9Y279 20-283)
T3 construct: short isoform ECD with His tag; also called hVSIG4-S; VISG4-S-His
T3 sequence: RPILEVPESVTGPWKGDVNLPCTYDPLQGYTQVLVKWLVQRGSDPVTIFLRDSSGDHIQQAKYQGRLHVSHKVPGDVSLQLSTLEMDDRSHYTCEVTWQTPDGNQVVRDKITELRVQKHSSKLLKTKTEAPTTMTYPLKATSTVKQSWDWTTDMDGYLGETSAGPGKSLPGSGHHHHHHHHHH

B1: 16E03 mouse Fab (periplasmic extract) (Fab, V domains shown)
VH: QVQLQQSGAELARPGASVKMSCKASGYTFTSYTMHWIKQRPGQGLEWIGYINPSSGHTYYNQKFKDKATLTPDKSSSTAYMQLTSLTSEDSAVYYCARRIPTAYAMDYWGQGTSVTVSS
VL: EIQMTQSHKFMSTSVGDRVSITCKASQDVGTAVAWYQQKPGQSPKLLIYWASTRHTGVPDRFTGSGSGTDFTLTISNVQSEDLADYFCQQYSSYPLTFGAGTKLELK
notes: mouse Fab with C-terminal His6-c-myc tag
B2: 15C04 mouse Fab (periplasmic extract) (Fab, V domains shown)
VH: QIQLQESGPSLVRPSQTLSLTCSVTGDSITSGYWNWIRKFPGDKLEYLGYISYSGFTYYNPSLKSRISITRDTSKNQYYLQLNSVTTEDTATYYCASSYYGSSLGFPYWGQGTLVTVSA
VL: DVVMTQTPLSLPVSLGDQASISCRSSQSLVHSNGNTYLHWYLQKPGQSPKLLIYKVSNRFSGVPDRFSGSGSGTDFTLKISRVEAEDLGVYFCSQSTHVPWTFGGGTKLEIK
notes: as for B1
B3: 1C6.D6 murine hybridoma antibody (antibody, V domains shown)
VH: QVQLQQPGAEMVRPGTSVKLSCKASGYTFTSYWMHWVKQRPGQGLEWIGKIDPSHNKTHYIQKFEDKATLTVDKSSSTAYMHLNSLTSEDSAVYYCVTWDGDFLYWGQGTLVTVSA
VL: NIVLTQSPASLTVSLGQRATISCRASESVDSYGNSFMHWYQQKPGQPPKLLIYITSNLQSGVPARFSGGGSRTDFTLTIDPVEADDAATYYCQQNNEDPWTFGGGTKLEIK
notes: murine IgG purified from hybridoma supernatant; also called 1C6.D6b
B4: 16F6.E1 murine hybridoma antibody (antibody, V domains shown)
VH: QVQLQQPGAEMVRPGASLKLSCKASGYTFTSYWMHWVKQRPGQGLEWIGKIDPSKNTTHYNQNFRDKATLTVDRSSSTAYMQLNSLTSEDSAVYFCVTWDGDFTYWGQGTLVTISA
VL: B3 VL with A9P, T12A, I54L, T55A, Q59E, G69S, Y91F, Q93H
notes: murine IgG purified from hybridoma supernatant; also called 16F6.H6
B5: 5D2.C8 murine hybridoma antibody (antibody, V domains shown)
VH: EVKLVESGGGLVKPGGSLKLSCAVSGFTFSNSAMSWVRQTPAKRLEWVAYISISGDNTYYPDSVKGRFTISRDNAKNTLYLQMSSLRSEDTAMYYCARRGYDYDGFTHWGQGTLVTVSA
VL: DILLTQSPAILSVSPGERVSFSCRASQNIGTSIHWYQQRTNGSPRLLIKYASQSISGIPSRFSGSGSGTDFTLSINSVESEDIADYYCQQSYSWPLTFGTGTQLELK
notes: murine IgG purified from hybridoma supernatant
B6: 14F8.H6 murine hybridoma antibody (antibody, V domains shown)
VH: EVHLVESGGALVKPGGSLKLSCTASGFTFSNSVMSWIRQTPEKRLEWVATIGSGGTYIYYPDSVKGRFTISRDNSKNTLFLQMTSLRSEDTALYYCARHIYGYDVVDYWGQGTTLTVST
VL: DIVMTQSHRFMSTSVGDRVSITCKASHDVSNVVAWYQQKPGQSPELLIYSASYRYTGVPARFTGSGSGTDFTFTISSVQAEDLAVYFCQQHFTTPLTFGAGTSLEVR
notes: as for B5
B7: 10E8.B6 murine hybridoma antibody (antibody, V domains shown)
VH: EVQLQQSGPELMKPGDSVKMSCKASGYTFTDYYMDWVKQSHGKSLEWIGYIYPNIDFTTYNQKFKGKATLTVDKSSNTAYMELHSLTSEDSAVYYCTRRDLPLHGSAYYFDYWGQGTTLTVSS
VL: DIVMSQSPSSLAVSAGEKVTMSCKSSQSLLNSRTRKNYLAWYQQKPGQSPKLLIYWASTRESGVPDRFTGSGSGTDFTLTISSVQAEDLAVYYCKQSYDLFTFGSGTKLEIK
notes: as for B5
B8: 1H7.C7 murine hybridoma antibody (antibody, V domains shown)
VH: EVQLVESGGGLVMPGGSRRLSCAASGFTFSDSGMYWVRQAPEKGLEWIAYISSGSDTLYYAATVKGRFTISRDNAKNTLFLQMTSLRSEDTAIYYCAKRNFYGYDVMDYWGQGTSVTVSS
VL: DIVMTQSHKFMSTSVGDRVSITCKASQDVSNVVAWYQQKPGQSPKLLIYSASYRYTGVPDRFAGSGSGTDFTFTISSVQAEDLAVYYCQQHYSTPWTFGGGTKLEIK
notes: as for B5
B9: 9A10.C4 murine hybridoma antibody (antibody, V domains shown)
VH: EVQLVESGGALVQPGGSLKLSCVASGFSFSNCVMSWVRQSPEKRLEWVATIGSDGSYSYYQDNVKGRFTVSRDNAKNTLYLQMSSLGSEDTALYYCGRHIYGYDVVDYWGQGTSLTVSS
VL: B8 VL with S20T, Y36F, Y55F, T56G, A63T, S93D, W96L, G100T, K103T, I106L
notes: as for B5
B10: 13E11.A4 murine hybridoma antibody (antibody, V domains shown)
VH: EVQLVESGGALVKPGGSLKLSCVASRFNLNNCVMSWIRQTPEKRLEWVATIDSGSIYTYYPDSVKGRFTISRDNAKNTLYLQMSSLRSEDTAVYYCVRHIYGYDVVDNWGQGTTLTVAS
VL: DIVMTQSHKFMSTSVGDNVSITCKASQYVSNTVAWYQQKPGQSPKLLIYSASYRNTGVPDRFTGSGSGTNFTFTISNMQAEDLAFYYCQQHYTSPLTFGAGTKLELK
notes: as for B5

Each binder was assayed against T1, Human VSIG4-L-His (assay: SPR (Biacore T200), Fab P.E. 1:5 over immobilised antigen).
Procedure: Off-rate values of the mouse unique Fab clones were determined using surface plasmon resonance (SPR) in Biacore™ T200 equipment (GE Healthcare, Chicago, IL). […] The immobilization was performed in accordance with a method provided by Biacore and by using the NHS/EDC kit (GE Healthcare, Chicago, IL). […] Sixty μl of Fab P.E. samples, diluted 1:5 in HBS-EP+ assay buffer (0.1 M HEPES, 1.5 M NaCl, 0.03 M EDTA and 0.5% v/v Surfactant P20), were injected and passed through the flow cells at a flow rate of 30 μl/min. After binding of the samples to VSIG4 protein, the off-rate was monitored for a period of five minutes. The flow cell surface was regenerated by a double injection of 10 μl of 1 mM glycine at pH 1.5 in 1 M sodium chloride at 30 μl/min. Off-rate analysis was done using the BIAevaluation software (GE Healthcare, Chicago, IL) and using a 1:1 dissociation kinetic fit curve.

koff [s⁻¹]	Binder
0.013	B1
0.0019	B2

Target: T2, Cynomolgus Monkey VSIG4-L-His
Experiment: BLI (Octet), mouse IgG on AMC sensor, antigen 100 nM;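 note: octet Red384 biolayer interferometry with immobilized mouse hybridoma antibodies, 300 s association then 300 s dissociation at 30 °C, isotype-control reference subtraction, 1:1 global fit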
Procedure: (§1) The binding affinity of murine hybridoma antibodies was determined by biolayer interferometry (BLI), using a ForteBio Octet® Red384 system. […] Biosensors were rehydrated prior to the assay in kinetics buffer for 10 minutes and then equilibrated in kinetics buffer for 60 seconds. Antibody was then immobilized for 300 seconds followed by a 120 second baseline wash in fresh kinetics buffer, 300 second analyte association, and 300 second dissociation in the same buffer wells as the baseline wash step. All assay steps occurred at 30° C. with an acquisition rate of 5.0 Hz. Processing parameters included reference subtraction, with mouse IgG1 or mouse IgG2a used as an isotype control for reference sensor subtraction. Y-axis data was aligned to the average baseline step for the last 5 seconds and all steps were inter-step corrected to the start of the dissociation step. High frequency noise was removed using Savitzky-Golay filtering and final fitting was a 1:1 global binding model to both association and dissociation.

Kd [nM]	Binder
1.13	B3
0.802	B4
0.435	B5
2.02	B6
1.56	B7
6.45	B8
1.23	B9
1.4	B10

Each binder was assayed against T3, Human VSIG4-S-His in the same assay as above.
Procedure: as §1

Kd [nM]	Binder
3.29	B3
2.87	B4
0.505	B5
5.86	B6
6.95	B7
21.5	B8
5.16	B9
4.99	B10

These binders were tested against T1, Human VSIG4-L-His in the same assay as above.
Procedure: as §1

Kd [nM]	Binder
1.03	B3
0.472	B4
0.475	B5
1.72	B6
2.13	B7
6.83	B8
0.965	B9
1.76	B10

What follows are binders tested against T4, Human VSIG4-S-Fc (human) (assay: ELISA, Fab P.E. 1:5 on coated antigen;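 note: mouse Fab P.E. samples in 1% skimmed milk PBS, bound to antigen-coated wells for 1 h at room temperature, read as absorbance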).
T4 construct: short isoform ECD fused to human Fc1; also called hVSIG4-S
T4 sequence (chain, as listed by the source limits assumed): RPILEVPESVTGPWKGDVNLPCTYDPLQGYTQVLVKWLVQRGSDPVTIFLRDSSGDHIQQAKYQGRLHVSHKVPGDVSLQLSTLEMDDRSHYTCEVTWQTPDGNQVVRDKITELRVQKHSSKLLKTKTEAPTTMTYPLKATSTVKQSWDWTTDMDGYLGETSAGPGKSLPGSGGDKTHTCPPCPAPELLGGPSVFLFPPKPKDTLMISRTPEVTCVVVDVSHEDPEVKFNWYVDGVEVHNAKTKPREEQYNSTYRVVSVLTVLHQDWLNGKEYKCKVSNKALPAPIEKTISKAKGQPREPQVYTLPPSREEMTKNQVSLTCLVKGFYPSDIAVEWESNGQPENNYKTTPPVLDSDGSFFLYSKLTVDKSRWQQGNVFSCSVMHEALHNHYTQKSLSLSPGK
Procedure: (§2) Coated microplates were blocked with dried skimmed milk at 4% in PBS. P.E. samples of the mouse unique Fab sequences were diluted 1:5 in assay buffer (1% dried skimmed milk in PBS), and 100 μl of diluted sample was added onto the coated wells and incubated for one hour at room temperature. […] Optical density (OD) at 450 nm was determined using a standard absorbance microplate reader.

ELISA OD450 [OD450]	Binder
4.3	B1
0.06	B2

Target: T2, Cynomolgus Monkey VSIG4-L-His
Experiment: ELISA, Fab P.E. 1:5 on coated antigen;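 note: mouse Fab P.E. samples in 1% skimmed milk PBS, bound to antigen-coated wells for 1 h at room temperature, read as absorbance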
Procedure: as §2

ELISA OD450 [OD450]	Binder
0.21	B1
0.05	B2

Each binder was assayed against T5, Human VSIG4-L-Fc (human) (assay: ELISA, Fab P.E. 1:5 on coated antigen;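 note: mouse Fab P.E. samples in 1% skimmed milk PBS, bound to antigen-coated wells for 1 h at room temperature, read as absorbance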).
T5 construct: also called hVSIG4-L-Fc; hVSIG4-L
T5 sequence (chain, as listed by the source limits assumed): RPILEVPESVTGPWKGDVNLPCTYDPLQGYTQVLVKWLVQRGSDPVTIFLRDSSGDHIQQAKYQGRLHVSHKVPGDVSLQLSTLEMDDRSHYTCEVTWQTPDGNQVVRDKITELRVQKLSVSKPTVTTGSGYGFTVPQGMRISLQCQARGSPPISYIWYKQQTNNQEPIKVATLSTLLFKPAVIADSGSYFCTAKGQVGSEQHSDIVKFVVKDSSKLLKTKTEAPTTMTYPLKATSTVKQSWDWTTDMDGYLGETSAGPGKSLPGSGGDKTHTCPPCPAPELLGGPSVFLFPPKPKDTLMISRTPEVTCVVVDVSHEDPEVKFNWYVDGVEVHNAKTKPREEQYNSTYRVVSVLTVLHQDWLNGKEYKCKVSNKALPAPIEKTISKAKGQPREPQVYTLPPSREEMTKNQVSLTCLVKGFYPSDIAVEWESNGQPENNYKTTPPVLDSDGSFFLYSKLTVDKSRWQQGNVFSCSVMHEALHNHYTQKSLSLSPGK
Procedure: as §2

ELISA OD450 [OD450]	Binder
4.43	B1
4.21	B2
